Blank lines part the entries; values can stand above or below the substance they belong to.
Experiments:
[1] = biological target: BTN2A1-BTN3A1-zipper ectodomain complex (wild type) (human) (UniProt Q7KYR7); experiment: flow cytometry, complex tetramer MFI on transfected BTN2A.BTN3A KO HEK293T cells; mean ± SEM; control
[2] = biological target: BTN2A1-BTN3A1 complex peptide on (human); experiment: PE-labelled BTN2A1-BTN3A1 complex tetramer on BTN2A.BTN3A-knockout HEK293T cells transfected with the TCR and CD3; reduced against WT G115; full-length, on cells
[3] = biological target: G115 Vγ9Vδ2+ TCR wild-type, full-length, on transfected HEK293T cells (human); experiment: flow cytometry, tetramer-PE versus CD3-APC on HEK293T cells co-transfected with CD3 and G115 WT TCR; SAv ctl 27
[4] = biological target: BTN2A1 on transfected cells (human) (UniProt Q7KYR7); experiment: flow cytometry, control tetramer-PE on BTN2A1+ NIH-3T3 cells, mAb 20.1-treated (grey number), GFP+ gate; SAv ctl 22
[5] = biological target: G115 Vγ9Vδ2+ TCR Glu52δ-Ala on transfected HEK293T cells (human); experiment: flow cytometry, tetramer-PE versus CD3-APC on HEK293T cells co-transfected with CD3 and G115 Glu52δ-Ala TCR; SAv ctl 32
[6] = biological target: G115 Vγ9Vδ2+ TCR His85γ-Ala on transfected HEK293T cells (human); experiment: flow cytometry, tetramer-PE versus CD3-APC on HEK293T cells co-transfected with CD3 and G115 His85γ-Ala TCR; SAv ctl 27
[7] = biological target: G115 Vγ9Vδ2+ TCR Lys53δ-Ala on transfected HEK293T cells (human); experiment: flow cytometry, tetramer-PE versus CD3-APC on HEK293T cells co-transfected with CD3 and G115 Lys53δ-Ala TCR; SAv ctl 27
[8] = biological target: full-length human BTN3A1 on transfected cells (human) (UniProt O00481); experiment: flow cytometry, control tetramer-PE on BTN3A1+ NIH-3T3 cells, isotype (IgG1κ)-treated (black number), GFP+ gate; SAv ctl 25
[9] = biological target: full-length human BTN3A1 on transfected cells (human) (UniProt O00481); experiment: flow cytometry, γδTCR tetramer-PE on BTN3A1+ NIH-3T3 cells, isotype (IgG1κ)-treated (black number), GFP+ gate; SAv ctl 28

Chain of BTN2A1 on transfected cells (human) (Q7KYR7 29-527 limits assumed): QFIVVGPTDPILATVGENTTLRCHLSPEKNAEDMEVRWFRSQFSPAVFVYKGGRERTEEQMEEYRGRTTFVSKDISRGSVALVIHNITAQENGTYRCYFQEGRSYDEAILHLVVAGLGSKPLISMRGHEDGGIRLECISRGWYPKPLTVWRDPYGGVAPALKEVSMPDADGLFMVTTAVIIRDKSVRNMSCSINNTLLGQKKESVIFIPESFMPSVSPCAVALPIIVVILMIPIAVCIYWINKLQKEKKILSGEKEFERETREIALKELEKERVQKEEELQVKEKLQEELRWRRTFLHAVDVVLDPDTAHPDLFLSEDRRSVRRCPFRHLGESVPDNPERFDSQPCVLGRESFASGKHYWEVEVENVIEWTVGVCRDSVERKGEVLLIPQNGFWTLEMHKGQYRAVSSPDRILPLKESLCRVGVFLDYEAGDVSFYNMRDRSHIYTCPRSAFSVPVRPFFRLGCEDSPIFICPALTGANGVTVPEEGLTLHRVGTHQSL
Chain of G115 Vγ9Vδ2+ TCR His85γ-Ala on transfected HEK293T cells (human) (TCR delta, as listed by the source, chain 1 of 2): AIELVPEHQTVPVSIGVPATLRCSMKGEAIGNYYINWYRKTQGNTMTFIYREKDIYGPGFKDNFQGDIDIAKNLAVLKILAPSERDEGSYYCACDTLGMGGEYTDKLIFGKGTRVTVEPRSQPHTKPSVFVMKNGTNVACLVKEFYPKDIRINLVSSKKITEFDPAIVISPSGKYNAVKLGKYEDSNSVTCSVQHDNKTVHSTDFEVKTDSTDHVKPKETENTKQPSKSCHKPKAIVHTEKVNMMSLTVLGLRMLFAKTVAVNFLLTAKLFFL
Chain of G115 Vγ9Vδ2+ TCR His85γ-Ala on transfected HEK293T cells (human) (TCR gamma, as listed by the source, chain 2 of 2): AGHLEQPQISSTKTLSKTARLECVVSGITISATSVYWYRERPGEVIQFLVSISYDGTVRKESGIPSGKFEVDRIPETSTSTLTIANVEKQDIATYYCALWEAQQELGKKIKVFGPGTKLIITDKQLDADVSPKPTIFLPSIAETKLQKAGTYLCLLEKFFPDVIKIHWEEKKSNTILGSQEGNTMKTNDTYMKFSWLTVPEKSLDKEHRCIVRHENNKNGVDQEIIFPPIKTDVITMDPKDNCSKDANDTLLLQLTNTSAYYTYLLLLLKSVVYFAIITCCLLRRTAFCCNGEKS

Substance: CD3 complex on HEK293T cells transfected with CD3 only (receptor)
fold-change of BTN2A1-BTN3A1 complex tetramer MFI relative to WT G115 TCR [1]: 0.3 fold

Substance: G115 Vγ9Vδ2+ TCR K53D
fold change of tetramer MFI against WT G115 TCR [2]: 0.8 fold

Substance: chimeric γδTCR tetramer: G115 Vγ9+ γ-chain with 9C2 Vδ1+ δ-chain
MFI of PE [9]: 24

Second part, the substance after the results:

fold change of tetramer MFI against WT G115 TCR [2]: 0.7 fold
Substance: G115 Vγ9Vδ2+ TCR K53E

median fluorescence of PE [3]: 20
MFI of PE [4]: 20
median fluorescence of PE [5]: 28
median fluorescence of PE [6]: 22
median fluorescence of PE [7]: 23
MFI of PE [8]: 32
Substance: mCD1d tet. ctl

Source: US20250161356A1
